“Also recorded” adds a separate entry of the source.
Tested on: Xenopus oocytes
Assay: Two-microelectrode voltage clamp of mHCN2 and mE324A expressed in Xenopus oocytes
Format: cell-based, Xenopus laevis
Protocol: Oocytes were prepared from mature female Xenopus laevis in accordance with an approved protocol as previously described (Yu et al., 2004).
For expression of HCN in Xenopus oocytes, oocytes were injected with 5 ng of cRNA made from mouse wild-type mHCN2 and mutant mHCN2 (E324A) plasmids. Injected oocytes were incubated at 18° C. for 24-48 h prior to electrophysiological analysis.
For measurements in Xenopus oocytes, oocytes were voltage-clamped using a two-microelectrode voltage clamp technique. The extracellular recording solution (OR2) contained (in mM): NaCl, 80; KCl, 2; MgCl2, 1; and Na-HEPES, 5 (pH 7.6). For the recording of steady state activation of expressed Wt mHCN2, currents were elicited by 2-s long hyperpolarizing pulses between −30 mV and −160 mV with 10 mV increments, followed by a 1-s depolarizing pulse to +15 mV. The holding potential was −30 mV. As to the mHCN2 (E324A), currents were elicited by 3-s-long hyperpolarizing pulses between +20 mV and −130 mV with 10 mV increments, followed by a 1 second depolarizing pulse to +50 mV. The holding potential was +20 mV. To construct the current/voltage relationship for wildtype (Wt) mHCN2, the cell was held at […], the current was elicited by a 2-s hyperpolarizing voltage step to −140 mV to saturate activation, and followed by 2-s depolarizing voltage steps between […] and +50 mV in 10 mV increments. For mHCN2 (E324A), the cell was held at +20 mV, current was elicited by a 1.5-s hyperpolarizing voltage step to −110 mV to saturate activation, and then followed by 1.5-s depolarizing voltage steps between −80 mV and +50 mV in 10 mV increments for the recording of tail currents. To record the current amplitudes for Wt mHCN2, the current was evoked by applying a 3-s hyperpolarizing voltage pulse to −120 mV from a holding potential of −30 mV. For mHCN2 (E324A), the current was evoked by applying a 3-s hyperpolarizing voltage pulse to −120 mV from a holding potential of +20 mV.

B1: mHCN2: mouse HCN2 hyperpolarization-activated, cyclic nucleotide-gated channel, wild type (GenBank AJ225122) (protein)
chain: MDARGGGGRPGDSPGTTPAPGPPPPPPPPAPPQPQPPPAPPPNPTTPSHPESADEPGPRARLCSRDSACTPGAAKGGANGECGRGEPQCSPEGPARGPKVSFSCRGAASGPSAAEEAGSEEAGPAGEPRGSQASFLQRQFGALLQPGVNKFSLRMFGSQKAVEREQERVKSAGAWIIHPYSDFRFYWDFTMLLFMVGNLIIIPVGITFFKDETTAPWIVFNVVSDTFFLMDLVLNFRTGIVIEDNTEIILDPEKIKKKYLRTWFVVDFVSSIPVDYIFLIVEKGIDSEVYKTARALRIVRFTKILSLLRLLRLSRLIRYIHQWEEIFHMTYDLASAVMRICNLISMMLLLCHWDGCLQFLVPMLQDFPSDCWVSINNMVNHSWSELYSFALFKAMSHMLCIGYGRQAPESMTDIWLTMLSMIVGATCYAMFIGHATALIQSLDSSRRQYQEKYKQVEQYMSFHKLPADFRQKIHDYYEHRYQGKMFDEDSILGELNGPLREEIVNFNCRKLVASMPLFANADPNFVTAMLTKLKFEVFQPGDYIIREGTIGKKMYFIQHGVVSVLTKGNKEMKLSDGSYFGEICLLTRGRRTASVRADTYCRLYSLSVDNFNEVLEEYPMMRRAFETVAIDRLDRIGKKNSILLHKVQHDLSSGVFNNQENAIIQEIVKYDREMVQQAELGQRVGLFPPPPPPQVTSAIATLQQAVAMSFCPQVARPLVGPLALGSPRLVRRAPPGPLPPAASPGPPAASPPAAPSSPRAPRTSPYGVPGSPATRVGPALPARRLSRASRPLSASQPSLPHGVPAPSPAASARPASSSTPRLGPAPTARTAAPSPDRRDSASPGAASGLDPLDSARSRLSSNL
- voltage at which currents saturated: around −130 mV
- slope (s) with cAMP (8-Br-cAMP 1 mM): 9.5 mV
- Vh with cAMP (8-Br-cAMP 1 mM extracellular): −84.9 mV
- effect of Cs+ on inward current (Cs+ 5 mM): blocked; also recorded: large inhibition
- slope (s), control (control): 13.9 mV
- activation more negative than mE324A (oocytes): 35 mV
- half maximal activation (Vh), control (oocytes, control): −92.7 mV
- induced current (single voltage pulse to −120 mV): 912.7±63.7 nA

— patent US20070099268A1, “Chimeric HCN channels” (priority 2005, published 2007)
